Assay [1] has as its target Bovine milk β1,4Gal-transferase (Sigma), mainly representing β4Gal-T1 (bovine) (UniProt P08037). Kind of assay: cell-based or functional assay.
For assay [2], the target named is soluble β4Gal-T2 (amino acid residues 31-372 of human UDP-galactose: β-N-acetylglucosamine β-1,4-galactosyltransferase, β4Gal-T2) (human) (UniProt O60909). Kind of assay: cell-based or functional assay.
Chain of soluble β4Gal-T2 (amino acid residues 31-372 of human UDP-galactose: β-N-acetylglucosamine β-1,4-galactosyltransferase, β4Gal-T2) (human) (O60909 31-372): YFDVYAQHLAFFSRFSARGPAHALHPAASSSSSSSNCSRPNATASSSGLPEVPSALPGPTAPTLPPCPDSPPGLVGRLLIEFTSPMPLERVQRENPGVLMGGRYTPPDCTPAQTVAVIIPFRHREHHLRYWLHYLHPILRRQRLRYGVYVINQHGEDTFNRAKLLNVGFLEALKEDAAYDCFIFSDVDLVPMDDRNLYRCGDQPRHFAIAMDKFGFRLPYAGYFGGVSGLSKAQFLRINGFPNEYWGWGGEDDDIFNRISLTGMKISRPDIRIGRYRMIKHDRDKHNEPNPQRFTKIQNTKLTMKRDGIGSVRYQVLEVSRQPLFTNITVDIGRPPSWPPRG

Chain of Bovine milk β1,4Gal-transferase (Sigma), mainly representing β4Gal-T1 (bovine) (P08037 78-402 limits assumed): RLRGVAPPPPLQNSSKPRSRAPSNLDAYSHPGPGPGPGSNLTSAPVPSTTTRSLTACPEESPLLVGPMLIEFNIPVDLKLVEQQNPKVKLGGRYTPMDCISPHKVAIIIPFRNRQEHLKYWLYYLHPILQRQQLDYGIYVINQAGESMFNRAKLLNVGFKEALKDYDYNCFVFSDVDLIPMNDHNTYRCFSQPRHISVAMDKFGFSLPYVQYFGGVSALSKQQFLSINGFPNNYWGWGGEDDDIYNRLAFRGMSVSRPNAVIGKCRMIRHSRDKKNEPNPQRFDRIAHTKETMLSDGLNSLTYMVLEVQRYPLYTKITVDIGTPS

As to α-lactalbumin, the values for the concentration of a-lactalbumin to achieve maximum activity with Glc in assay [1] and in assay [2] were 0.1 mg/mL and 0.4 mg/mL, respectively.

Values taken from patent US20030013173A1.
